Assay: yeast display, Sf9 membrane polyspecificity reagent, FACS + sequencing; frameworks hold sequencing errors
How it was run: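 After 36–48 hours of galactose induction, yeast (Saccharomyces cerevisiae BJ5465) displaying a synthetic nanobody library were stained at 4 °C for 1 hour with 10% biotinylated, detergent-solubilized Sf9 membrane reagent. Streptavidin microbeads enriched the stained cells before FACS sorting into low and high (top ~1%) gates on anti-HA and streptavidin fluorescence. Each clone's polyreactivity label reflects its gate of origin.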

Sequence | polyreactivity (PSR sort gate)
QVQLVESGGGLVQAGGSLRLSCAASGSTFYANAMGWYRQAPGKERELVAAITRSGAGTYYADSVKGRFTISRDNAKNTVYLQMNSLKPEDTAVYYCNAGSSFWVSRIGYDYWGQGTQVTVSS | high polyreactivity
QVQLVESGGGLVQAGGSLRLSCAASGSTFYANTMGWYRQAPGKERELVAAISRRGGRTYYADSVKGRFTISRDNAKNTVYLQMNSLKPDDTAVYYCARRGYSSRTIKRYNYWGQGTQVTVSS | high polyreactivity
QVQLVESGGGLVQAGGSLRLSCAASGSTFYAYTMGWYRKAPGKERELVAGISRRGGTTYYADSVKGRFTISRDNAKNTVYLQMNSLKPEYTAVYYCAADKTKPQASEGYYAYYYWGQGTQVTVSS | low polyreactivity
QVQLVESGGGLVQAGGSLRLSCAASGSTFYAYTMGWYRQAPGKERELVADISRSGGSTYYADSVKGRFTISRDNAKNTVYLQMNSLKPEDTAVYYCAAASSYYRGHYDYWVQGTQVTVSS | high polyreactivity
QVQLVESGGGLVQAGGSLRLSCAASGSTFYDNAMGWYRQAPGKERELVARITWNGGRTYYADSVKGRFTISRDNAKNTVYLQMNSLKPEDTAVYYCNAVYWGYGKYDYWGQGTQVTVSS | high polyreactivity
QVQLVESGGGLVQAGGSLRLSCAASGSTFYDNTMGWYRQPPGKERELVAVITTDGDRTYYADSVKGRFTISRDNAKNTVYLQMKSLKPEDTAVYYCNARRAYWVVYPGDDYWGQGTQVSVSS | low polyreactivity
QVQLVESGGGLVQAGGSLRLSCAASGSTFYDYAMGWYRQAPGKERELVAAISQSGGSTYYADSVKGRFTISRDNAKNTVYLQMNSLKPEDTAVYYCAADSGYSLYDYWGQGTQVTVSS | low polyreactivity
QVQLVESGGGLVQAGGSLRLSCAASGSTFYDYAMGWYRQAPGKERELVAAISRSGGSTYYADSVKGRFTISRDNAKNTVYLQRNSLKPEDTAVYYCAASRATLLRYGYWGQGTQVTVSS | low polyreactivity
QVQLVESGGGLVQAGGSLRLSCAASGSTFYFNTMGWYRQAPGKERELVAAINSIGGSTYYADSVKGRFTISRDNAKNTVYLQMNSLKPEDTAVYYCAKLKRLYYWSSHTSYGYDYWGQGTQVTVSS | high polyreactivity
QVQLVESGGGLVQAGGSLRLSCAASGSTFYFYAMGWYRQAPGKERELVASITVRGGRTYCADSVKGRFTISRDNAKNTVYLQMNSLKPEDTAVYYCAENWSYRAYDYWGQGTQVTVSS | low polyreactivity
QVQLVESGGGLVQAGGSLRLSCAASGSTFYGNAMGWYRQAPGKERELVAAITGDGGSTYYADSVKGRFTISRDNAKNTVYLQMNSLKPEDTAVYYCAVDVIVLGQWPGQLDEFDYWGQGTQVTVSS | low polyreactivity
QVQLVESGGGLVQAGGSLRLSCAASGSTFYGNAMGWYRQAPGKERELVAAITWGDASTYYADSVKGRFTISRDNAKNTVYLQMNSLKPEDTAVYYCAADFYYAYYWGQGTQVTVSS | low polyreactivity
QVQLVESGGGLVQAGGSLRLSCAASGSTFYGYAMGWYRPAPGKERELVAAITIGGRTYYADSVKGRFTISRDNAKNTVYLQMNSLKPEDTAVYYCAAAILRTVPELGSRRTYYYWGQGTQVTVSS | high polyreactivity
QVQLVESGGGLVQAGGSLRLSCAASGSTFYGYAMGWYRQAPGKERELVAAISSNGDSTYYADSVKGRFTISRDNAKNSVYLQMNILKPEDTAVYYCATDPEGSTGGGYEFWGQGTQVTVSS | low polyreactivity
QVQLVESGGGLVQAGGSLRLSCAASGSTFYGYAMGWYRQAPGKERELVAVINYSGGTTSYADSVKGRFTISRDNAKNTVYLQMNSLKPEDTAVYYCAARRRWAILRYRGNYDYWGQGTQVTVSS | high polyreactivity
QVQLVESGGGLVQAGGSLRLSCAASGSTFYGYGMGWYREAPGKERELVAAITGSGDTTYYADSVKGRFTISRDNAKNTVYLQMNSLKREDTAVYYCNAGWHAEYDYWGQGTQVTVSS | low polyreactivity
QVQLVESGGGLVQAGGSLRLSCAASGSTFYHNVMGWSRQAPGKERELVASIDTGDSTNYADSVKGRFTISRDNAKNTVYLQMNSLKPEDTAVYYCNADSYPALNKRGYDYWGQGTQVTVSS | low polyreactivity
QVQLVESGGGLVQAGGSLRLSCAASGSTFYINAMGWYRPAPGKERELVAAITDSGGSTYYADSVKGRFTISRDNAKNTVSLQMNSLKPEDTAVYYCATDGYDPRGYDYWGQGTQVTVSS | high polyreactivity
QVQLVESGGGLVQAGGSLRLSCAASGSTFYINAMGWYRQAPGKERELVAAISWSGGSTYYADSVKGRFTISRDNAKNTVYLQMNSMKPEDTAVYYCAADWYLGWSLDYDYWGQGTQVTVSS | low polyreactivity
QVQLVESGGGLVQAGGSLRLSCAASGSTFYIYAMGWYRQAPGKERELVAAINWRTGSTYYADSVKGRFTISRDNAKNTVYLQMNSLKPEDTAVYYCNAYTKHWSYWGQGTQVTVSS | high polyreactivity
QVQLVESGGGLVQAGGSLRLSCAASGSTFYIYAMGWYRQAPGKERELVAAITEGGGITYYADSVKGRFTISRDNAKNTVYLQMISLKPEDTAVYYCADVWGYYVLPYDYWGQGTQVTVSS | low polyreactivity
QVQLVESGGGLVQAGGSLRLSCAASGSTFYIYAMGWYRQAPGKERELVAAITWSGGSTYYADSVKGRFTISRDNAKNTVYLQMNSLKPEDTAVYYCAAQVWYSKSPTVDVYFDYDYWGQGTQVTVSS | low polyreactivity

Sequence | polyreactivity (PSR sort gate)
QVQLVESGGGLVQAGGSLRLSCAASGSTFYKYAMGWYRQAPGKERELVASISRSGGSTSYADSVKGRFTISRDNAKNTVYLHMNSLIPEDTAVYYCAATWRQHPGSMGYWGQGTQVTVSS | high polyreactivity
QVQLVESGGGLVQAGGSLRLSCAASGSTFYKYAMGWYRQAPGKERELVASITWSGTSTYYADSVKGRFTISRDNAKNTVYLQMNSLKPEDTAVYYCNAGLEYYYWGYTWEFDYWGQGTQVTVSS | low polyreactivity
QVQLVESGGGLVQAGGSLRLSCAASGSTFYKYAMGWYRQAPGKERELVAVINYRGGSTYYADSVKGRFTISRDNAKNTVYLQMNSLKPEDTAVYYCAARQYWQNRRQYYYWGQGTQVTVSS | high polyreactivity
QVQLVESGGGLVQAGGSLRLSCAASGSTFYKYDMGWYRQAPGKEREFVAVISWSGGNTYYADSVKGRFTISRDNAKNNVYLQMNSLKPEDTAVYYCAADNYPDEYDYWGQGTQVTVSS | low polyreactivity
QVQLVESGGGLVQAGGSLRLSCAASGSTFYKYGMGWYRQAPGKERELVAAISGSGDSTYYADSVKGRFTISRDNAKNTVYLQMNSLKPEDTAVYYCNAGPWWYLHEYDYWGQGTQVTVSS | low polyreactivity
QVQLVESGGGLVQAGGSLRLSCAASGSTFYLNAKGWYRQAPGKERELVAASSSSGGSTYYADSVKGRFTISRDNAKNTVYLQMNSLKPEDTAVYYCACSCVPAVSVYGGDYWGQGTQVTVSS | low polyreactivity
QVQLVESGGGLVQAGGSLRLSCAASGSTFYLNAMGWYRQAPWKERELVASITWRGGSTYYADSVKGRFTISRDNAKNTVYLQMNSLKPEDTGVYYCAADATRLRTRYKRDYWGQGSQVTVSS | high polyreactivity
QVQLVESGGGLVQAGGSLRLSCAASGSTFYLNDMGWYRQAPGKERELVAAIDWSGGSTYYAVSVKGRFTISRDNAKNTVYLQMNSLKPEDTAVYYCAARLVYEWRRLDYFIAWDYWGQGTQVTVSS | low polyreactivity
QVQLVESGGGLVQAGGSLRLSCAASGSTFYLYAMGWYRPAPGKERELVASITSGDGSTYYADSVKGRFTISRDNAKNTVYLQMNSLKPEDTAVYYCNAVLEGWFYQYDYWGQGTQVTVSS | low polyreactivity
QVQLVESGGGLVQAGGSLRLSCAASGSTFYLYAMGWYRQAPGKERELVASITSGDGSTYYADSVKGRFTISRDNAKNTVYLQMNSLKPEDTAVYYCNAVLEGWFYQYDYWGQGTQVTVSS | low polyreactivity
QVQLVESGGGLVQAGGSLRLSCAASGSTFYLYAMGWYRQAPWKEREFVARITWSGGSTYYADSVKGRFTISRDNAKNTVYLQMNSLKPEDTAVYYCNATKTGPATVRYYYWGQGTQVTVSS | high polyreactivity
QVQLVESGGGLVQAGGSLRLSCAASGSTFYLYDMGWYRQAPGKEREMVAAISWSSGSTYYADSVKGRFTISRDNAKNTVYLQMNSLKPEETAVYYCAAGPSDTEYWLFDYWGQGTQVTVSS | high polyreactivity
QVQLVESGGGLVQAGGSLRLSCAASGSTFYNNAMGWYRQAPGKERELVAAITRTGGRTYYADSVKGRFTISRDNAKNTVYLQMNSLKPEDTAVYYCAALRYGQGSISAFDYWGQGTQVTVSS | high polyreactivity
QVQLVESGGGLVQAGGSLRLSCAASGSTFYNYALGWYRQAPGKERELVAAIRRSGGSTYYADSVKGRFTISRDNAKNTVYFQMNSLKPEDTAVYYCAASYYTRGYWGQGTQVTVSS | high polyreactivity
QVQLVESGGGLVQAGGSLRLSCAASGSTFYPKAKAWNRQAPGKERELVAGISSGGGTYYADSVKGRFTISRDNAKNTVYLQMNSLKREDTAVYYCNAYFLSSSLDYWGQGTQVTVSS | low polyreactivity
QVQLVESGGGLVQAGGSLRLSCAASGSTFYPNAMGWSRQAPGKERELVAAISRGTRTKYADSVKGRFTISRDNAKNTVYLQMKSLKPEDTAVYYCAADTGTGLDWGQGTQVTVSS | high polyreactivity
QVQLVESGGGLVQAGGSLRLSCAASGSTFYPNAMGWYRQAPGKERELVARISGRGGRTYYADSVKGRFTISRDNAKNTVYLLMNSLKPEDTAVYYCSKDPSSDLDYDYWGQGTQVTVSS | low polyreactivity
QVQLVESGGGLVQAGGSLRLSCAASGSTFYPNPMGWYRQAPGKERELVAAISQRGGRTYYADSVKGRFTISRDNAKNTVYLQMNSLKPEDTAVYYCAATYQGYNSWYSFGYWGQGTQVTVSS | high polyreactivity
QVQLVESGGGLVQAGGSLRLSCAASGSTFYPYAMGWYRQAPGKERELVAAISSRDGRTYYADSVKGRFTISRDNAKNTVYLQMNSLKPEDTAVYYCAAVRALRKVRDYYYWGQGTQVTVSS | high polyreactivity
QVQLVESGGGLVQAGGSLRLSCAASGSTFYPYAMGWYRQAPGKEWEFVADITKRGGSTYYADSVKGRFTISRDNAKNTVYLQMNSLKPEDTAVYYCNAYNYDLVYPQYDYWGQGTQVTVSS | low polyreactivity
QVQLVESGGGLVQAGGSLRLSCAASGSTFYQNAMGWYRQAPGKERELVAAISRSGGGTYYADSVKGRFTISRDNAKNTVYLQMNSLKPEDTAVYYCAVRPTYNSWTRSTSRYYYWGQGTQVTVSS | high polyreactivity

From the nanobody polyreactivity screen of Harvey et al. (2022)
